Source: patent publication US20230220038A1, “BRI2 BRICHOS DOMAIN FOR DELIVERY OF PROTEINS INTO CNS NEURONS” (ALPHABETA AB, priority 2021, published 2023)

B1: rh Bri2 BRICHOS-AU1: Rh Bri2 BRICHOS domain, residues 113-231 of Bri2, linked to an AU1 tag at the C-terminal end (SEQ ID NO: 11) (protein, listed as Homo sapiens)
chain: GSQTIEENIKIFEEEEVEFISVPVPEFADSDPANIVHDFNKKLTAYLDLNLDKCYVIPLNTSIVMPPRNLLELLINIKAGTYLPQSYLIHEHMVITDRIENIDHLGFFIYRLCHDKETYKLDTYRYI
modifications: DOMAIN 3..121 Rh Bri2 BRICHOS domain; DOMAIN 122..127 AU1 tag
B2: Bri2 BRICHOS monomers: recombinant human Bri2 BRICHOS (113-231) wild-type, monomeric species (SEQ ID NO: 2) (protein, listed as Homo sapiens)
chain: QTIEENIKIFEEEEVEFISVPVPEFADSDPANIVHDFNKKLTAYLDLNLDKCYVIPLNTSIVMPPRNLLELLINIKAGTYLPQSYLIHEHMVITDRIENIDHLGFFIYRLCHDKETYKL
B3: Bri2 BRICHOS oligomers: recombinant human Bri2 BRICHOS (113-231) wild-type, oligomeric species (protein, UniProt Q9Y287 113-231, looked up, fragment)
chain: B2 chain
modifications: oligomers
notes: recombinant human Bri2 BRICHOS (113-231) wild-type, oligomeric species
B4: Bri2 BRICHOS crude: recombinant human Bri2 BRICHOS (113-231) wild-type, crude solution (protein, UniProt Q9Y287 113-231, looked up, fragment)
chain: B2 chain
B5: NT-Bri2 BRICHOS: rh fusion protein: NT* solubility tag followed by human Bri2 residues 113-231 (protein, UniProt Q9Y287 113-231, looked up, fragment)
chain: B2 chain
modifications: NT* spider silk solubility tag

Legend:
[1] = tested on: wild type mice; conditions: mouse, in vivo, iv, 10 mg/kg
Experimental: Two different types of commercially available microbubbles, either Definity® (Lantheus Medical Imaging, MA, USA) or SonoVue® (Bracco, Milan, Italy) were administered at a dose of 5 μl/g body weight. For one part of the study (FIG. 3A), a total of […] mice were divided into four groups that received, respectively, i.v. injections of microbubbles and PBS (n=4), microbubbles and 1 (n=4), 10 (n=6) or 20 (n=4) mg/kg body weight of rh Bri2 BRICHOS-AU1 (SEQ ID NO: 11). In the second part of the study (FIG. 3B), a total of 3 mice were administered 20 mg/kg rh Bri2 BRICHOS-mCherry (SEQ ID NO: 12) (n=1) or microbubbles+20 mg/kg rh Bri2 BRICHOS-mCherry (n=2) intravenously. […]
96-well plates (Nunc MicroWell™) were coated with anti Bri2 BRICHOS capture antibody diluted in coating buffer (50 mM carbonate pH 9.6) and incubated overnight at 4° C. […] The reaction was stopped by adding stop solution for TMB substrates (Thermo Fisher) and absorbance was measured at 450 nm, using the values for brain homogenates from the non-treated mouse as blank. […]
Calculation of concentrations and total amounts of rh Bri2 BRICHOS-AU1 in each brain hemisphere was assessed by assuming a brain density of […], an average brain hemisphere weight of 225 mg and average of total protein in brain hemisphere homogenates of 25.6 mg.

[2] = tested on: SH-SY5Y cells; assay: Cell uptake by western blot, SH-SY5Y; format: cell-based, human; conditions: 24 h incubation, western blot band intensities of cell lysate
[3] = tested on: hCMEC/D3 cells; assay: Cell uptake by western blot, hCMEC/D3; format: cell-based, human; conditions: hCMEC/D3, 2 h and 24 h, western blot of cell lysate
Experimental: Once confluent, the hCMEC/D3 cells were treated with 1 μM rh Bri2 BRICHOS monomers, oligomers or proSP-C monomers for 2 h and 24 h. […] Untreated cells were used as control. After the treatment, the cells were lysed as described for the HEK-293 cells.

[4] = tested on: SH-SY5Y cells
Experimental: Human neuroblastoma (SH-SY5Y) cell line (ATCC, Manassas, Va.) was grown in Dulbecco's Modified Eagle's Medium (DMEM, PAN-Biotech, Germany) with 4.5 g/L glucose, glutamine (2 mM) and 3.7 g/L NaHCO3, supplemented with 10% Fetal Bovine Serum (FBS, Sera Plus, PAN-Biotech, Germany) and penicillin-streptomycin (100 IU/ml, 100 μg/ml) in TC-coated T75 tissue culture flasks.
(§1) Cell viability was assessed by tetrazolium-based Thiazolyl Blue Tetrazolium Bromide (MTT) assay. For the MTT assay, 50 000 cells/cm^2 were seeded onto clear 96-well plates (TC, Cellstar, Greiner Bio-One, Austria) and grown until confluent, after which the cells were treated with the rh BRICHOS domains in 8 replicates for 24 h in a humidified atmosphere (5% CO2/95% air) at 37° C. Treated cells were incubated with 0.5 mg/ml MTT (Sigma-Aldrich, St. Louis, Mo.) solution in FBS-free cell media for 4 h in a humidified atmosphere (5% CO^2/95% air) at 37° C. The MTT solution was removed and the formazan crystals were dissolved in Dimethyl sulfoxide (DMSO, Sigma-Aldrich, St. Louis, Mo.) and incubated with shaking for 15 min. Absorbance was measured at 570 nm using a FLUOstar OPTIMA microplate reader (BMG Lab Tech, Germany). Untreated cells were used as positive control, and media without cells was used as a negative control. Also 2 μM Staurosporine from Streptomyces sp. (SP, Sigma-Aldrich, St. Louis, Mo.) was used as a negative control.

[5] = tested on: hCMEC/D3 cells
Experimental: hCMEC/D3 cells (MilliporeSigma, Burlington, Mass.) were cultivated in EndoGRO-MV Complete Media (MilliporeSigma, Burlington, Mass.), supplemented with 1 ng/ml recombinant human fibroblast growth factor basic (FGF-2, Gibco, Invitrogen, Waltham, Mass.) and penicillin-streptomycin (100 IU/ml, 100 μg/ml, Gibco, Thermo Fisher Scientific, Waltham, Mass.) in T75 tissue culture flasks (TC-coated, DeltaLab, Spain) coated with 5-10 μg/cm^2 rat tail collagen type I (MilliporeSigma, Burlington, Mass.).
as §1

[6] = tested on: hCMEC/D3 monolayer
Experimental: For the preparation of the hCMEC/D3 cell monolayers, transwell ethylene terephthalate (PET) membrane inserts (24-well, clear, pore size 0.4 μm, CellQART, SABEU GmbH & Co. KG, Germany) were coated with rat tail type I collagen (150 μg/ml in 1× Dulbecco's Phosphate-buffered saline pH 7.4, 1×DPBS, Gibco, Thermo Fisher Scientific, Waltham, Mass.) for 2 h at 37° C. […] Media was changed every second day and the cell monolayer was established by day 6.
Experiments were conducted on culture day 6 by adding different BRICHOS protein constructs, or relevant controls to the apical side of the hCMEC/D3 monolayer. […] After the incubation, medium on the apical and basolateral sides of the monolayer was removed and analyzed by Western blotting and the band intensities measured by ImageJ. […] For mCherry and mCherry-Bri2 BRICHOS monomers, fluorescence intensity of the apical and basolateral medium was recorded at λex 570 nm and λem 610 nm, after which the cells were fixed and analyzed by fluorescence microscopy to analyse the uptake of mCherry or mCherry-Bri2 BRICHOS into cells.
FITC fluorescence was measured at λex 492 nm and λem 518 nm. Insulin permeability was determined by western blot and an anti-Insulin monoclonal primary antibody (Sigma, St. Louis, Mo.) at 1:1000 dilution. […]

Molecule	percent of the total amount administered detected in the brain [1] [%]	cell uptake, result in words [2]	cell uptake, result in words [3]	toxicity / cell mitochondrial activity, result in words [4]	toxicity / cell mitochondrial activity, result in words [5]	hCMEC/D3 monolayer permeability, result in words [6]
B1	1					
B2		linear uptake	taken up	no toxicity	no toxicity	
B3		detected in the cell lysate to a lesser degree	seem not to be taken up	slight decrease in the cell mitochondrial activity	slight decrease in the cell mitochondrial activity	
B4				slight decrease in the cell mitochondrial activity	slight decrease in the cell mitochondrial activity	
B5						only the monomers show permeability
